Test: soluble on expression in E. coli; label from the status in PepcDB or PDB records

Sequence	soluble on expression in E. coli
MSLSENTTKVVQLNSHLTAPGQVTDELQSLTRMPAAFVETKDKGKQALRPLLQALFDNIDDALFELADRAEHNAEQNMFFESMREVRIKRRGMELCFGQELDNRFRLLLTDDAPRAKSSADDPRLAVDSLSLIANEELEELVAADTMIIKAEGEFTDSLSQLTTRIDTLVHPLEVTDKTNPFGPTSVCQSFVGVCKTLDMDIRAKLVLFKLFDRYVMNGLGDVYAACNEVLVNNGILPGLAKGRTTAARADSNIQQPPAASGTVDVFAQLQTLLHGLPQHTAGIETSGLVAVGQAPQIPRDTLMTLLQSVQLSLAPQLDQQLQAALQGVGPQQLDIQQSLSNLLSAKLPSKPMSIGQVESDALNLVAMLFQFILDDRNLAAPMKALIARLQIPFIKAAMIDSSFFTKGGHPARRLLNEIASASLGWVAIGIVDRDPLYAKVSSIVTRIQREFDGDSRLFQDVLTDFVAFLDMDKRRIGLVEQRTINAEDGKAKSEQARTAVQTALNERVAGLSLPKVVISLLEQAWSNVLFLIYLKEGDQAENWQEGLNVVDDLLWSVQPMDSADSRHRLVTMVPPLLKNVRAGLTKIGYNPFEMNQLFTDLEVVHLSQLQALNTVKLDMTASEGHHHHHH	not soluble
MGSDKIHHHHHHMRLPPLNALRAFEAAARHNGYIAAAEELCVTRGAVSRHIKLLEDHLGVTLFHRNHRGVELTAAGRQLLPVLTETFARIAREAEQISAMTRDVRIICPPALSIRWLFPRLEEFQAAHPDIRVRLTTEFYGAKGFDDTEHDLGVSVEHVSGRGAGIASMPLFPMVLSPACSPALLRQRPLSAPADLARMTLLHESPQRRDWAHWLSSFGVRGVDAGSGPTFPNLDMAARAATMGAGVVMADLALCQEELRAGTLVLPFPEMTCTTPQGGYVLLGARARWDEPHLRAFRDWAASSSADLVACMGA	not soluble
MGSDKIHHHHHHMKSKGSRLSTDCPVEFPKIVSGFAEEVKIRRQSSQGQYAVDSHPPKSPELKHRRQRSSSFVNGKCRNRDLPLLDNKKAQEINTNSHGQDIGIKNLPRQRELLNAKNGIDFTLMVAGQSGLGKTTFINSLFSTSLIDDDIKENKPIIRYKSIVEGDGTHLNFNVIDTPGFGNNMDNAFTWRTMVNYIDEEIRSYIFQEEQPDRTKMVDNRVHCCLYFLRPSNKGIDTLDVVTMKKLAKRVNLIPVIAKSDLLTKEELKNFKTQVREIIRVQDIPVCFFFGDEVLNATQDIFQKYPFSIIASNEYIFNEKGEKVKGRQYKWGAVDIENEKYCDFKILQKTIFDWNLIDLVESTEDYYEKCRSEMLRTRLLKARDCLTTKSVDITEEQRKFLEEEMNFDEIEENKLKNYKCYEIINKTVMDKVATEWDPEFITRQLEAKKKFNELSNREISKFRDWKKSLFMEQENFNQEIEQLNHKLENLQLECQDLEYKLLIGKSSNSHSTDSATLVNVHIKR	not soluble
MHIIFDTSGFLSGLQLSLDRVYTTQEVINEIKDKYSRFNLEIAISSGKVIIMKPSTRSVEKVTKVLNLTKERKLSNTDISVIALALDLQPSIVFTDDLSVQNILKQLGIQFSSVKINKKVEKSFKFKYVCVNCKREFNIDHGECPYCGGKVVKRRIMELEHHHHHH	not soluble
GQEVTMWGDSHGVAPNQVRRTLVKVALSESLPPGAKQIRIGFSLPKETEEKVTALYLLVSDSLAVRDLPDYKGRVSYDSFPISKEDRTTALSADSVAGRRFFYLAADIGPVASFSRSDTLTARVEEVAVDGRPLPLKELSPASRRLYRGY	not soluble
MSLAVEKITMPKLGESVTEGTISSWLVKPGDTVEKYDAIAEVLTDKVTAEIPSSFSGTIKEILAEEDETLEVGEVICTIETADAGSSEPVAEVEETETKAPEKQETKQVKLADAPASGRFSPAVLRIAGENNIDLSTVEGTGKGGRITRKDLLQVIENGPVAKREEMKSAPQEKAAMPTPPVRSAAGDKEIPINGVRKAIAKHMSVSKQEIPHAWMMVEVDATGLVRYRNAVKDSFKKEEGYSLTYFAFFIKAVAQALKEFPQLNSTWAGDKIIEHANINISIAIAAGDLLYVPVIKNADEKSIKGIAREISELAGKARNGKLSQADMEGGTFTVNSTGSFGSVQSMGIINHPQAAILQVESIVKRPVIIDDMIAVRDMVNLCLSIDHRILDGLLAGKFLQAIKANVEKISKENTALYEGHHHHHH	soluble
MRLEVLCEDRLGLTRELLDILASKSIDLRGIEIDISGIIYLNCPDIDFDTFSELMAEIRRIPGVKDVRKIQFMPMERHNTELLSLVDNLPDPVFAIDLKGAVDMANMSALSLLGLHKQEVIGTQIGALLPSVRFSRWSEGVNARTRENLVIDGLDYILELMPVYIRDEAQNSTLASTLMTIRTSQHGTQIE	not soluble
MAGASVKVAVRVRPFNSREMSRDSKCIIQMSGSTTTIVNPKQPKETPKSFSFDYSYWSHTSPEDINYASQKQVYRDIGEEMLQHAFEGYNVCIFAYGQTGAGKSYTMMGKQEKDQQGIIPQLCEDLFSRINDTTNDNMSYSVEVSYMEIYCERVRDLLNPKNKGNLRVREHPLLGPYVEDLSKLAVTSYNDIQDLMDSGNKPRTVAATNMNETSSRSHAVFNIIFTQKRHDAETNITTEKVSKISLVDLAGSERADSTGAKGTRLKEGANINKSLTTLGKVISALAEMDSGPNKNKKKKKTDFIPYRDSVLTWLLRENLGGNSRTAMVAALSPADINYDETLSTLRYADRAKQIRNTVSVNHHHHH	soluble
MGHHHHHHSHMSGVAGGASKKSSSRTMATKKLIIDEFKRRLRDNIKSLNDNFFHIIQAAKVNPDDNAYKNQTGKMTEFYTTKNEMAVRAQLMVRASDELLKLTADLKEFLILHDFHFLTHNIKQAEAQCEETLRQQSHQHNCLDSEVSNILFDLEREIAENFYLRHT	not soluble
RGKVFLEAQEKYEVNVIYLVSHALVETGNGKSELAKGIKDGKKRYYNFFGIGAFDSSAVRSGKSYAEKEQWTSPDKAIIGGAKFIRNEYFENNQLNLYQMRWNPENPAQHQYASDIRWADKIAKLMDKSYKQFGIKKDDIRQTYYK	not soluble
MGSDKIHHHHHHAPFVFDQQSYRQDVQTLASDEFEGRGPLSQGETLTVEYLENAFKKMGLAPGFGDSYRQSVPMAKITADQNMQLKVGELVFNNGSDFTARTEQIQPSITLDNSEIVFVGYGINAPEYGWNDYAGIDVKGKTVILMVNDPGFATQDPEVFKGNAMTYYGRWTYKYEEAARQGAKAVFIIHETAPAAYGWNVVQNSNTNTKYTLVDKEKNRSHIGVMGWVQHEVAQKIFTAAGLDYDKLKLTAAKPGFKSRSLDLKANLEVKNDIELATSYNVAGLLPGKTRPDEWLVMHAHWDHLGKTVHEDQTRIYNGAVDNASGVAGVLQLARHFKDLSATQPPARSMLFSAFTAEETGLIGAQYFAENSPVPTKQLVAFLNIDGMNVGKGVDYILRYGEGVSELENYLDKAAKAQGRWVKADPRPQNGLMFRSDHFALAKQGVPGLMFMSLGDTDPDYIAHKYHQGADDYDPSWTLGGVEQDLALISDILEKLANNNDWPKWLEASDFKTRRAQDGR	not soluble
MAHHHHHHSLTTDLPAAYHIEQRAHAFPWSEKTFASNQGERYLNFQLTQNGKMAAFAITQVVLDEATLFNIAVDPDYQRQGLGRALLEHLIDELEKRGVATLWLEVRASNAAAIALYESLGFNEATIRRNYYPTTDGREDAIIMALPISMEG	not soluble
AHHHHHHGSNYRYPPRYGPEWGSGGIYGLRFHNGTLYFTLAFEGEAHFITEDSHKIYEFELVGPRPTSGGDTYNAVEVVDEYIYFGGWVHAPAKYRGKGEGKATIDFSNKYSHVHEYDTENQEVRLVWKESIHHPSEWAGEVSDIIYNPYTDELLLAREDGHTNLGVYSLSRNGRIRLLNDKPSAKGCQMHDLAFFGIGKNYRKGLEEIHALDMITERWEVFPLGESLDGGKYIQPHLGGNGVSVNNRVFAFVRGGVFVGNPHNDEQFAFVRLFDFYTFYAPFRVNALPIGGGILVGFNAHHDAYYRPRTQEEMIYHRFTNTIPGPSVLVYFAPPMVKIVGVFGARITSIEKVDGKILVATNTTPNVGALDATPFDTGNKDIFVLPEKILQEKPPAVSFSVPLAFPSEGKRMGAGVFGGIPLDGYDNARLIIKASRDNRLKVYEYDLALPLRDADVEEFDIKKGRNVIDLRTFSGIVSFELESEDFSGVARIELW	not soluble

From the DeepSol protein solubility set
